Assays:
[1] = target: TChz, truncated recognition fragment (middle region, MoRF) of the histone chaperone Chz1 (UniProt P40019); assay: ITC; 200 uM TBZ_(Y139W) injected into 20 uM TChz, 298 K, NANO-ITC, 1:1 isothermal binding model
[2] = target: TBZ_(Y139W), tryptophan variant (pseudo-WT) of the H2A.Z-H2B linked fragment; assay: stopped-flow fluorescence; TChz 4, 6, 8, 12, 20 uM mixed with 2 uM TBZ_(Y139W), 0.01 M PBS, 25 C, excitation 290 nm, 320 nm cutoff filter; global numerical fit to a two-step induced-fit model

| Molecule | Kd [1] [nM] | dH [1] [kcal/mol] | stoichiometry N [1] | k1+ (first step, association to the intermediate, induced-fit model) [2] [M⁻¹ s⁻¹] | k1− (first step, dissociation of the intermediate, induced-fit model) [2] [s⁻¹] | k2+ as the column head prints it a second time (taken as k2−, second step reverse, induced-fit model) [2] [s⁻¹] |
| --- | --- | --- | --- | --- | --- | --- |
| TBZ_(Y139W), tryptophan variant (pseudo-WT) of the H2A.Z-H2B linked fragment (domain or fragment) | 330 | -8.14 | 0.97 | – | – | – |
| TChz, truncated recognition fragment (middle region, MoRF) of the histone chaperone Chz1 (domain or fragment) DMDDAKLDALMGNEGEEEEDDLAEIDTSNIITSGRRTRGKVIDYKKTAEELDKKEPSTGSKD | – | – | – | 6.78e+06 | 53.4 | 9.88 |
